In patent publication US20230287125A1 (LEPU BIOPHARMA, published 2023):
Numbering of substitutions follows the chain as printed.

B1: Hu47C6A3-1 (antibody, V domains shown)
VH: QVQLQESGPGLVKPSETLSLTCTVSGYSITSDYAWNWIRQPPGKGLEWIGYIIYSGSTSYNPSLKSRVTISVDTSKNQFSLKLSSVTAADTAVYYCARSTMIATNWFAYWGQGTLVTVSS
VL: DIQMTQSPSSLSASVGDRVTITCKASQDVSLAVAWYQQKPGKAPKLLIYWASTRHTGVPSRFSGSGSGTDFTLTISSLQPEDFATYYCQQHYITPWTFGGGTKVEIK
notes: humanized
B2: Hu67F3G7-2 (antibody, V domains shown)
VH: EVQLVQSGAEVKKPGASVKVSCKASGYTFTDFWVSWVRQAPGQGLEWMGEIYPNSGVSRYNEKFKGRVTMTVDKSISTAYMELSRLRSDDTAVYYCTKYFGYTYWFGYWGQGTLVTVSS
VL: DIQMTQSPSSLSASVGDRVTITCRASKSVSTYMHWYQQKPGKAPKLLIYSASHLESGVPSRFSGSGSGTDFTLTISSLQPEDFATYYCQQSNELPVTFGGGTKVEIK
notes: humanized
B3: Hu89C10H8-4 (antibody, V domains shown)
VH: EVQLVESGGGLVKPGGSLRLSCAASGFTFSNYWMTWIRQAPGKGLEWVASITNTGSSTFYPDSVKGRFTISRDNAKSSLYLQMNSLRAEDTAVYYCTRDTTIAPFDYWGQGTMVTVSS
VL: DIQMTQSPSSLSASVGDRVTITCKASQNLNEYLNWYQQKPGKAPKRLIYKTNTLQAGVPSRFSGSGSGTDYTLTISSLQPEDFATYYCSQYNSGNTFGQGTKLEIK
notes: humanized
B4: Hu67F3G7-3 (antibody, V domains shown)
VH: B2 VH with T28I, M48I
VL: B2 VL
notes: humanized
B5: Hu47C6A3-2 (antibody, V domains shown)
VH: B1 VH with V72R
VL: B1 VL
notes: humanized
B6: Hu89C10H8-7 (antibody, V domains shown)
VH: B3 VH with S77N
VL: B3 VL with V58I
notes: humanized
B7: Hu89C10H8-11 (antibody, V domains shown)
VH: B3 VH with S77N
VL: B3 VL with V58I, T69I
notes: humanized
B8: Hu47C6A3-3 (antibody, V domains shown)
VH: B1 VH with I49M, V68I, V72R
VL: B1 VL
notes: humanized

These molecules were tested against T1, human PD-L1-Fc protein (human, UniProt Q9NZQ7 19-238) (assay: receptor blocking ELISA: coated human PD-L1-Fc, blocked ligand biotin-labeled human PD-1-Fc (Bio-PD1), OD 450nm; upper left panel).
T1 construct: coating antigen of the ELISAs; also called rhPD-L1-Fc; not shown: Fc
T1 sequence (Q9NZQ7 19-238 limits assumed): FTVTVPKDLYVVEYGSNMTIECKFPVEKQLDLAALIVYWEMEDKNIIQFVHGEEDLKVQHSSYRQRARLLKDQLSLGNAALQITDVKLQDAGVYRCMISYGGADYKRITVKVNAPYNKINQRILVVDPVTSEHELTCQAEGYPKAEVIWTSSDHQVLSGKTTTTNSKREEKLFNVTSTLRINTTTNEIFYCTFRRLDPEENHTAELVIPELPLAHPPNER
Experimental: (§1) Briefly, microtiter plates were coated with human PD-L1-Fc protein at 0.5 μg/ml in PBS, 100 μl/well at 4° C. overnight, then blocked with 150 μl/well of 1% BSA at 37° C. for 2 hours. […] The plates were washed with PBS/Tween and then incubated with Streptavidin-HRP for 10 mins at 37° C. After washing, the plates were developed with TMB substrate and analyzed by spectrophotometer at OD 450 nm.
B1 showed an IC50 of 0.0349 µg/mL.
In the case of B2, the IC50 is reported as 0.109 µg/mL.
B3 was tested, and the IC50 was 0.111 µg/mL.

These molecules were tested against T1, human PD-L1-Fc protein (assay: ELISA, antibody titrated on coated human PD-L1-Fc, OD 450nm; upper left panel).
Experimental: (§2) To evaluate antigen binding activity, the humanized antibodies were subjected to ELISA test. Briefly, microtiter plates were coated with human PD-L1-Fc protein at 0.5 μg/ml in PBS, 100 μl/well at 4° C. overnight, then blocked with 200 μl/well of 1% BSA. Three-fold dilutions of humanized antibodies starting from 10 μg/ml were added to each well and incubated for 1 hour at 37° C. The plates were washed with PBS/Tween and then incubated with mouse-anti-human IgG Fab antibody conjugated with Horse Radish Peroxidase (HRP) for 1 hour at 37° C. After washing, the plates were developed with TMB substrate and analyzed by spectrophotometer at OD 450 nm.
B1 was tested, and the EC50 was 0.00963 µg/mL.
B2 was tested, and the EC50 was 0.0132 µg/mL.
Work on B4 yielded an EC50 of 0.0232 µg/mL.
With B3 the EC50 was 0.00683 µg/mL.

These molecules were tested against T1, human PD-L1-Fc protein (assay: ELISA, antibody titrated on coated human PD-L1-Fc, OD 450nm; upper right panel).
Experimental: as §2
In the case of B5, the EC50 is reported as 0.0117 µg/mL.
B6 was tested, and the EC50 was 0.00705 µg/mL.
B7 showed an EC50 of 0.00878 µg/mL.

The molecules below were run against T2, human PD-L1-his tag protein (human, UniProt Q9NZQ7 19-238) (assay: SPR (Biacore), affinity ranking, PDL1-His).
T2 construct: also called human PD-L1-His protein; recombinant PD-L1 protein; not shown: his tag
T2 sequence (Q9NZQ7 19-238 limits assumed): as above
Molecule B2 has a Kd of 0.0379 nM, a koff of 9.75e-05 s⁻¹ and a kon of 2.57e+06 M⁻¹ s⁻¹.
For B4, the Kd was 0.0347 nM, the koff was 9.72e-05 s⁻¹ and the kon was 2.8e+06 M⁻¹ s⁻¹.
With B6 the Kd was 0.107 nM, the koff was 6.61e-05 s⁻¹ and the kon was 615000 M⁻¹ s⁻¹.
With B7 the Kd was 0.0961 nM, the koff was 6.73e-05 s⁻¹ and the kon was 700000 M⁻¹ s⁻¹.
Work on B3 yielded a Kd of 0.0954 nM, a koff of 5.94e-05 s⁻¹ and a kon of 623000 M⁻¹ s⁻¹.

Each molecule was assayed against T2, human PD-L1-his tag protein (assay: SPR (Biacore T200), mAb captured on Protein A chip, PD-L1-his injected).
Experimental: The binding of the humanized antibodies to recombinant PD-L1 protein (human PD-L1-his tag) was tested by Biacore using a capture method. […] A serial dilution of human PD-L1-his tag protein was injected over captured antibody for 2 mins at a flow rate of 30 μl/min. The antigen was allowed to dissociate for 1500 s. All the experiment were carried out on a Biacore T200.
Work on B5 yielded a Kd of 0.367 nM, a koff of 0.0009 s⁻¹ and a kon of 2.45e+06 M⁻¹ s⁻¹.
For B8, the Kd was 0.444 nM, the koff was 0.000966 s⁻¹ and the kon was 2.18e+06 M⁻¹ s⁻¹.
In the case of B1, the Kd is reported as 0.48 nM, the koff is reported as 0.000593 s⁻¹ and the kon is reported as 1.24e+06 M⁻¹ s⁻¹.
Molecule B2 has a Kd of 0.0367 nM, a koff of 7.03e-05 s⁻¹ and a kon of 1.92e+06 M⁻¹ s⁻¹.
In the case of B4, the Kd is reported as 0.0371 nM, the koff is reported as 7.74e-05 s⁻¹ and the kon is reported as 2.09e+06 M⁻¹ s⁻¹.
Work on B6 yielded a Kd of 0.0935 nM, a koff of 5.31e-05 s⁻¹ and a kon of 568000 M⁻¹ s⁻¹.
Work on B7 yielded a Kd of 0.0983 nM, a koff of 5.54e-05 s⁻¹ and a kon of 564000 M⁻¹ s⁻¹.
In the case of B3, the Kd is reported as 0.0962 nM, the koff is reported as 5.41e-05 s⁻¹ and the kon is reported as 562000 M⁻¹ s⁻¹.

Each molecule was assayed against T1, human PD-L1-Fc protein (assay: receptor blocking ELISA: coated human PD-L1-Fc, blocked ligand biotin-labeled human PD-1-Fc (Bio-PD1), OD 450nm; upper right panel).
Experimental: as §1
B5 showed an IC50 of 0.0354 µg/mL.
B4 gave an IC50 of 0.158 µg/mL.
Work on B6 yielded an IC50 of 0.114 µg/mL.

Each molecule was assayed against T3, human PD-L1 over-expressed on CHOK1 cells (human, UniProt Q9NZQ7 19-290) (assay: flow cytometry (MFI) on PDL1-CHOK1 cells; upper right panel).
T3 construct: whole, on cells; also called PDL1-CHOK1 cells
T3 sequence (Q9NZQ7 19-290): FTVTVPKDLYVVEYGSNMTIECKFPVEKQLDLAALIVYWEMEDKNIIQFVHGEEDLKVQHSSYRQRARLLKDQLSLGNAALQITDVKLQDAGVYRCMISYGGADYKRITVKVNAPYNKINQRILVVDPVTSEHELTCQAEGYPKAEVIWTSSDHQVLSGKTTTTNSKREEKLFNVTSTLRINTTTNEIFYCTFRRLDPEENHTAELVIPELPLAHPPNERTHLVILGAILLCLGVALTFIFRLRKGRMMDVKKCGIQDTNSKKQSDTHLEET
Experimental: (§3) To evaluate the antigen binding property, the humanized antibodies were analyzed for their binding to PD-L1 overexpressed on mammalian cells by FACS. Briefly, PDL1-CHOK1 cells were firstly incubated with 3-fold serious diluted humanized antibodies starting at 15 μg/ml at 4° C. for 40 mins. After washed by PBS, the Alexa Fluor® 647 AffiniPure Goat Anti-Human IgG (H+L) antibody was added to each well and incubated at 4° C. for 30 mins. The MFI of Alexa Fluor® 647 was evaluated by FACSCanto.
With B2 the EC50 was 0.108 nM.
For B4, the EC50 was 0.167 nM.

These molecules were tested against T1, human PD-L1-Fc protein (assay: receptor blocking ELISA: coated human PD-L1-Fc, blocked ligand biotin-labeled human PD-1-Fc (Bio-PD1), OD 450nm; lower left panel).
Experimental: as §1
In the case of B8, the IC50 is reported as 0.029 µg/mL.
With B7 the IC50 was 0.11 µg/mL.

The molecules below were run against T1, human PD-L1-Fc protein (assay: receptor blocking ELISA: coated human PD-L1-Fc, blocked ligand biotin-labeled human CD80-Fc (Bio-CD80), OD 450nm; upper right panel).
Experimental: as §1
B5 gave an IC50 of 0.165 µg/mL.
In the case of B4, the IC50 is reported as 0.495 µg/mL.
B6 showed an IC50 of 0.285 µg/mL.

What follows are molecules tested against T1, human PD-L1-Fc protein (assay: receptor blocking ELISA: coated human PD-L1-Fc, blocked ligand biotin-labeled human CD80-Fc (Bio-CD80), OD 450nm; upper left panel).
Experimental: as §1
For B1, the IC50 was 0.141 µg/mL.
Molecule B2 has an IC50 of 0.282 µg/mL.
For B3, the IC50 was 0.353 µg/mL.

Each molecule was assayed against T3, human PD-L1 over-expressed on CHOK1 … (assay: flow cytometry (MFI) on PDL1-CHOK1 cells; upper left panel).
Experimental: as §3
B5 showed an EC50 of 0.175 nM.
In the case of B8, the EC50 is reported as 0.188 nM.
B1 was tested, and the EC50 was 0.291 nM.

The molecules below were run against T1, human PD-L1-Fc protein (assay: ELISA, antibody titrated on coated human PD-L1-Fc, OD 450nm; lower left panel).
Experimental: as §2
With B8 the EC50 was 0.015 µg/mL.

The molecules below were run against PD-L1 on PD-L1 target cells (Homo sapiens (Human)) (UniProt Q9NZQ7) (assay: cell-based or functional assay).
Chain of PD-L1 on PD-L1 target cells (Homo sapiens (Human)) (Q9NZQ7 19-290 limits assumed): as the sequence (Q9NZQ7 19-290) above
“MPDL3280A (Atezolizumab), Human IgG1 (N297A)-Fc (antibody)” gave an EC50, NFAT-RE-mediated luminescence, PD1 effector cells co-cultured with PD-L1 target cells of 0.133 nM.

What follows are molecules tested against T1, human PD-L1-Fc protein (assay: receptor blocking ELISA: coated human PD-L1-Fc, blocked ligand biotin-labeled human CD80-Fc (Bio-CD80), OD 450nm; lower left panel).
Experimental: as §1
B8 was tested, and the IC50 was 0.163 µg/mL.
B7 was tested, and the IC50 was 0.275 µg/mL.

What follows are molecules tested against T3, human PD-L1 over-expressed on CHOK1 … (assay: flow cytometry (MFI) on PDL1-CHOK1 cells; lower right panel).
Experimental: as §3
B6 was tested, and the EC50 was 0.1 nM.
B7 gave an EC50 of 0.151 nM.
For B3, the EC50 was 0.127 nM.
